Assay: soluble on expression in E. coli; label from the status in PepcDB or PDB records

| Sequence | soluble on expression in E. coli |
| --- | --- |
| MLQVTGIPDACDNLAPIPMECDAPFLSIKGELPRELNGTLYRNGANPQFVSPNAHWFFGDGMLHAFHLENGRASYRNRWVRTPKWLAEHEAGRPLYGEFNLKLPDAPRSVPDDGNVANTNIVFHAGRLLALEEAHLPMQIERDTLETRCYCDYGGALKGPFTAHPKIDPVTGEMLFFGYNASGPLTRTMSFGAIDASGNVTRLEHFKAPFAAMVHDFIVTEHHVLFPILPLTGSIWRAMRGRPPYAWDPRKGSYVGVMKRSGSTRDVRWFRGEACFVFHVMNAWEDGTRIVADVMQSEEAPLFTHPDGRRTDPEKGRARLCRWSFDLAGNTNAFKRSYLDEISGEFPRIDERRAGLRSGHGWYACASPETPMLGMLTGLVHVDGNGHRRTRYLLPTGDTIGEPVFVPRAADANEAEGWLLAVVWRGCENRSDLAVFNATDIAAGPIALVQLGHRIPDGFHGNWVPAGAAALEHHHHHH | not soluble |
| GAKPRNLNVSFQGCGMDSLSVRAMDTDTLTQVKEKILEAFCKNVPYSQWPRAEDVDLEWFASSTQSYILRDLDDTSVVEDGRKKLNTLAHYKIPEGASLAMSLIDKKDNTLGRVKDLDTEKYFHLVL | soluble |
| MGSDKIHHHHHHMGVKSLVPQELIEKIKLISPGTELRKALDDIINANFGALIFLVDDPKKYEDVIQGGFWLDTDFSAEKLYELSKMDGAIVLSEDITKIYYANVHLVPDPTIPTGETGTRHRTAERLAKQTGKVVIAVSRRRNIISLYYKNYKYVVNQVDFLISKVTQAISTLEKYKDNFNKLLSELEVLELENRVTLADVVRTLAKGFELLRIVEEIRPYIVELGEEGRLARMQLRELTEDVDDLLVLLIMDYSSEEVEEETAQNILQDFITRREPSPISISRVLGYDVQQAAQLDDVLVSARGYRLLKTVARIPLSIGYNVVRMFKTLDQISKASVEDLKKVEGIGEKRARAISESISSLKHRKTSE | not soluble |
| GSHGMSKSPEEEHPVKAFGWAARDQSGHLSPFNFSRRATGEEDVRFKVLYCGVCHSDLHSIKNDWGFSMYPLVPGHEIVGEVTEVGSKVKKVNVGDKVGVGCLVGACHSCESCANDLENYCPKMILTYASIYHDGTITYGGYSNHMVANERYIIRFPDNMPLDGGAPLLCAGITVYSPLKYFGLDEPGKHIGIVGLGGLGHVAVKFAKAFGSKVTVISTSPSKKEEALKNFGADSFLVSRDQEQMQAAAGTLDGIIDTVSAVHPLLPLFGLLKSHGKLILVGAPEKPLELPAFSLIAGRKIVAGSGIGGMKETQEMIDFAAKHNITADIEVISTDYLNTAMERLAKNDVRYRFVIDVGNTLAATKP | soluble |
| MKNNKDEKIRISIINGFLGSGKTTLLTHYISELLKNDEKIKIIMNEFGTFDIDSNSISNEIEVHSLINGCVCCDLKQELVYELKAIALKGDVNHVIIETTGIAHPLELLVACQDPQIVNFFEKPIIYGVLDATRFLERHQYTENTVSLMEDQLKLSDMIIINKIDLITDDRLERIDKQLGMICASIPTYKTTYGKVSLEELDLTVKDREISSHHHHHHGIKSMTYTFTGPIDRQLFYQFIMKLPESVLRLKGYVSFRDQPNAIYEFQYAYGLPDYGIIGMQLPLTIVIIGETLDTNHIRNQLDMLQFT | not soluble |
| SLEDYLQGCRAALQESRPLHVVLGNEACDLDSTVSALALAFYLAKTTEAEEVFVPVLNIKRSELPLRGDIVFFLQKVHIPESILIFRDEIDLHALYQAGQLTLILVDHHILSKSDTALEEAVAEVLDHRPIEPKHCPPCHVSVELVGSCATLVTERILQGAPEILDRQTAALLHGTIILDCVNMDLKIGKATPKDSKYVEKLEALFPDLPKRNDIFDSLQKAKFDVSGLTTEQMLRKDQKTIYRQGVKVAISAIYMDLEAFLQRSNLLADLHAFCQAHSYDVLVAMTIFFNTHNEPVRQLAIFCPHVALQTTICEVLERSHSPPLKLTPASSTHPNLHAYLQGNTQVSRKKLLPLLQEALSAYFDSMKIPSGQPETADVSREQVDKELDRASNSLISGLSQDEG | soluble |
| MGSDKIHHHHHHMEKQNNHIDRRGFLKIVGISAATTTAALYGCGSGTKSSQGRNASSPVPTDQMTYRSVGGIKDKVSLLGYGCMRWPTVPSPEGKGDLINQEAVNELVDYAIAHGVNYFDTSPVYVQGWSEKATGIALKRHPREKLYIATKLSNFSNFSRENSLAMYHQSFKDMQVEYFDYYLLHAIGGGGMKVFNERYIDNGMLDFLLKEREAGRIRHLGWSFHGDVEVFDQVLAMHDTVKWDFVQIQLNYVDWRHATGNNVNAEYLYGELAKRNIAAVIMEPLLGGRLSNVPEHIVGRLKQRRPEDSVASWAFRFAGSPELVLTVLSGMTYMEHLQDNIRTYSPLVPLTDDDKEYLEETAQLMMQYPTIPCNDCKYCMPCPYGIDIPAILVHYNKCVNEGNIPQSQTSENYKEARRAFLVGYDRSVPKLRQASHCIGCNQCTPHCPQSIHIPEELHRIDRFVEQLKQGTL | not soluble |

From the DeepSol protein solubility set
